Drawing on PMC7791966 (Experimental and Therapeutic Medicine, 2020), this text covers Kd for 2 molecules.

The target in this assay is Recombinant human HER2 (Homo sapiens, UniProt P04626). Kind of assay: SPR. (In general: Surface plasmon resonance follows binding to a sensor surface in real time, without labels.)

B1: e23sFv, mouse anti-HER2 single-chain variable fragment (scFv, V domains shown)
VH: VQLQESGPEVVKPGGSMKISCKTSGYSFTGHTMNWVKQSHGKNLEWIGLINPYNGDTNYNQKFKGKATFTVDKSSSTAYMELLSLTSEDSAVYYCARRVTDWYFDVWGAGTTVTVS
VL: DLQLTQSPAILSASPGEKVTMTCRATPSVSYMHWYQQKPGSSPKPWIYTTSNLASGVPARFSGGGSGTSYSLTVSRVEAEDAATYYCQQWSRSPPTFGGGSKLEIK
Consider B1, for which the Kd (usually a measure of binding affinity in units of concentration) is 2.5 nM.

B2: EMEY, e23sFv derivative with 11 point mutations in the framework regions (scFv, V domains shown)
VH: VQLQESGPELVKPGGSVKISCKASGYSFTGHTMNWVKQSHGKGLEWIGLINPYNGDTNYNQKFKGKATLTVDKSSSTAYMELSSLTSEDSAVYYCARRVTDWYFDVWGAGTTVTVS
VL: DLQLTQSPAILSASPGEKVTMTCRATPSVSYMHWYQQKPGTSPKLWIYTTSNLASGVPARFSGSGSGTSYSLTISRVEAEDAATYYCQQWSRSPPTFGGGTKLEIK
As to B2, the Kd is ~500 nM.
